From patent US20210340207A1 (Merck Sharp & Dohme, published 2021)
*1 amine or outer side, *2 acyl side, *3 side chain or, on linkers, in order; H or OH if unused. Side-chain parts run from the residue outwards. [ ]: non-standard residue; d: D form. pAMF = para-azidomethylphenylalanine, [N-]=[N+]=NCc1ccc(C[C@H](N[*:1])C(=O)[*:2])cc1

Legend:
[1] = target: T1, mouse IL-2Rαβγc (on CTLL2-STAT5 reporter cells) (mouse, UniProt P01590 22-268; P16297 27-539; P34902 23-369); assay: cell-based or functional assay
T1 sequence (looked up) 1: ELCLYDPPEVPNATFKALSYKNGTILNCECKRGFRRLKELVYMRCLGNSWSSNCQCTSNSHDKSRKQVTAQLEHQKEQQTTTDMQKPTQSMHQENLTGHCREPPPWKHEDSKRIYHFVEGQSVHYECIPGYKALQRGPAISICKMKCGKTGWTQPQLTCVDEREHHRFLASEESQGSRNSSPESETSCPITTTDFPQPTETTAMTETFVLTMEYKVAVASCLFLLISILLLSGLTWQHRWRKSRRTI
T1 sequence (looked up) 2: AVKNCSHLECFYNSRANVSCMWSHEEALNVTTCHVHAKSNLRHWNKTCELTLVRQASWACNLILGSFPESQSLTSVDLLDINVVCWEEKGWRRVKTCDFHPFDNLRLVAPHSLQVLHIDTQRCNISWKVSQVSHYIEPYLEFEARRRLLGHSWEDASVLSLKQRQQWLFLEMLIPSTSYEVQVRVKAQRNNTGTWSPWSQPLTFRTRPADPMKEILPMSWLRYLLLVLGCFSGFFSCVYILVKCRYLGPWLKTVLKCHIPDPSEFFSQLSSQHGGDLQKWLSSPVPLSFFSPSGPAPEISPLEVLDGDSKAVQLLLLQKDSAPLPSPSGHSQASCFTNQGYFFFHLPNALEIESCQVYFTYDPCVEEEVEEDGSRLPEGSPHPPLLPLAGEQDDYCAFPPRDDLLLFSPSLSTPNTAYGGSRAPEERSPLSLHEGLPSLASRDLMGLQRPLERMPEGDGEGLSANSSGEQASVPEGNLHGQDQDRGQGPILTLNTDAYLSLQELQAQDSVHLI
T1 sequence (looked up) 3: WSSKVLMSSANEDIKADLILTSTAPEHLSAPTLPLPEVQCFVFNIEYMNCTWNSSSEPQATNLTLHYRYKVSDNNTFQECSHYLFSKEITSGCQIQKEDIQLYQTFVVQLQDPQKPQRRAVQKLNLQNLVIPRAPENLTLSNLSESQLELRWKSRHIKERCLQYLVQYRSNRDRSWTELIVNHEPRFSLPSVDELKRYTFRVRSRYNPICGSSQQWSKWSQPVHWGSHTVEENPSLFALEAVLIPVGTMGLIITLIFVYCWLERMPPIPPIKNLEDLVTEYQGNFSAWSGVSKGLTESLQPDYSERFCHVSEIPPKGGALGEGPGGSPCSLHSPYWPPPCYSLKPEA

[2] = target: T2, human IL-2Rβγc (on DERL-7 cells, U2OS IL2RB/IL2RG cells, CD25 knockout Kit225-STAT5 cells, primary CD8+ CTLs) (human, UniProt P14784 27-551; P31785 23-369); assay: cell-based or functional assay
T2 sequence (looked up) 1: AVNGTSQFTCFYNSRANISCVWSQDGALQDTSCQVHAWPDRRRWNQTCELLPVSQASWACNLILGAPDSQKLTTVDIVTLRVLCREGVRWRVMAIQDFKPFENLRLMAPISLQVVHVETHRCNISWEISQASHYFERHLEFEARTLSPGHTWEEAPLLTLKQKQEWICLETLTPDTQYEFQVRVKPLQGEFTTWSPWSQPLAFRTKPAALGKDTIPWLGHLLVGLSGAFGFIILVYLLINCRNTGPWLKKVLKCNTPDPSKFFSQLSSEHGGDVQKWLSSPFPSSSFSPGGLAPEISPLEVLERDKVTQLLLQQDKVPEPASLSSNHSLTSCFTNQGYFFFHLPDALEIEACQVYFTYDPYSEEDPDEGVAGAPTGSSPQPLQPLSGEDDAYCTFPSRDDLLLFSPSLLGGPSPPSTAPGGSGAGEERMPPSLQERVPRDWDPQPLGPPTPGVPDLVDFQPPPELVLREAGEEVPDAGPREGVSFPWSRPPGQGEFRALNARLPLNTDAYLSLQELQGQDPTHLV
T2 sequence (looked up) 2: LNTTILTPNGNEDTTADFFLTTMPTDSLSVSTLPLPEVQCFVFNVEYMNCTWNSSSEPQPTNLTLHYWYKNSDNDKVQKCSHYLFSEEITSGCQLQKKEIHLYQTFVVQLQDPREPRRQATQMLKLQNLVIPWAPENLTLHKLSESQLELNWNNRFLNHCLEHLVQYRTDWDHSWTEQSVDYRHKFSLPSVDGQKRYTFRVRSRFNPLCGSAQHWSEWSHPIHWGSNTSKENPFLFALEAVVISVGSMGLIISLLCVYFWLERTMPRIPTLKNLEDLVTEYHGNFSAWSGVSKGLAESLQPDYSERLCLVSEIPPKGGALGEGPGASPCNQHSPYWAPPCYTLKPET

[3] = target: T3, Human IL-2Rβ, His tag (Table 10) (human, UniProt P14784 27-239, limits assumed); assay: SPR (Biacore T200)
T3 construct: not shown: polyhistidine tag
T3 sequence (looked up): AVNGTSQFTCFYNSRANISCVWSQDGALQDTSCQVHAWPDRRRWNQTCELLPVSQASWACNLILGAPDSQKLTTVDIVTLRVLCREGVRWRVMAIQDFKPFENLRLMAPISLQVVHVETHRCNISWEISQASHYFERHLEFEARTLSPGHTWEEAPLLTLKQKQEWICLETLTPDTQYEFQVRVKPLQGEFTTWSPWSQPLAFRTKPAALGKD
Description: (§1) A Surface Plasmon Resonance (SPR) assay on a Biacore T200 (GE Healthcare) instrument was used to determine the monovalent affinities of pegylated aldesleukin variants against polyhistidine-tagged or Fc-tagged IL-2 Receptors. Biacore T200 Evaluation Software was used to fit each titration series to a 1:1 binding model or steady state affinity. The association (kₒₙ, M⁻¹ s⁻¹) and dissociation (koff, s⁻¹) rate constants were determined for each set of titrations and used to calculate the dissociation constant, KD=koff/kₒₙ, of each sample against each receptor. koff/kₒₙ values are not reported herein.

[4] = target: T4, Cynomolgus/Rhesus IL-2Rβ, His tag (Table 10) (cynomolgus monkey / rhesus monkey, UniProt Q38J85 27-240); assay: SPR (Biacore T200)
T4 sequence: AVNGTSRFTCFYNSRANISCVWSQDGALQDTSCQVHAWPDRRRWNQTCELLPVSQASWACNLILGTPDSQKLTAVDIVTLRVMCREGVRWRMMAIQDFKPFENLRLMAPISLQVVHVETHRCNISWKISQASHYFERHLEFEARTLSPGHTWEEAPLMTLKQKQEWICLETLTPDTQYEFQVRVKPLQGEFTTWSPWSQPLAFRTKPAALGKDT
Description: as §1

B1: Ald_S4pAMF(PEG1)/R37A/F41K (CON1) (ligand)
chain: PTS[pAMF]([DBCO‑triazole-mPEG 30 kDa])STKKTQLQLEHLLLDLQMILNGINNYKNPKLTAMLTKKFYMPKKATELKHLQCLEEELKPLEEVLNLAQSKNFHLRPRDLISNINVIVLELKGSETTFMCEYADETATIVEFLNRWITFSQSIISTLT
modifications: not fully specified (bridges)
notes: also called Des-A1_IL-2_S4pAMF(PEG1)/R37A/F41K/C124S
- STAT5-CTLL2 EC50 [1]: 57.4 nM
- STAT5-CTLL2 EC50 Fold-change [1]: 5300 fold
- DERL-7 EC50 Fold-change [2]: 17 fold
- DERL-7 proliferation EC50 [2]: 0.73 nM
- fold lower affinity than aldesleukin [3]: 6 fold
- fold lower affinity than aldesleukin [4]: 6 fold
